± gives the standard deviation of the averaged measurements.
Test: total protein half-life in vivo (active degradation + dilution); higher = more stable protein
[1] = E. coli NCM3722 delta-clpP delta-lon delta-hslV, growth: N-lim chemostat, doubling time 6 h
[2] = wild type E. coli NCM3722, growth: C-lim chemostat, doubling time 3 h
[3] = wild type E. coli NCM3722, growth: C-lim chemostat, doubling time 6 h
[4] = wild type E. coli NCM3722, growth: C-lim chemostat, doubling time 12 h
[5] = wild type E. coli NCM3722, growth: P-lim chemostat, doubling time 6 h
[6] = wild type E. coli NCM3722, growth: P-lim chemostat, doubling time 12 h
[7] = E. coli NCM3722 delta-clpP, growth: N-lim chemostat, doubling time 6 h
[8] = E. coli NCM3722 delta-hslV, growth: N-lim chemostat, doubling time 6 h
[9] = E. coli NCM3722 delta-lon, growth: N-lim chemostat, doubling time 6 h
[10] = E. coli NCM3722 delta-smpB, growth: N-lim chemostat, doubling time 6 h
[11] = wild type E. coli NCM3722, growth: N-lim chemostat, doubling time 6 h
[12] = wild type E. coli NCM3722, growth: N-lim chemostat, doubling time 12 h

Sequence	total protein half-life in vivo [1] [h]	total protein half-life in vivo [2] [h]	total protein half-life in vivo [3] [h]	total protein half-life in vivo [4] [h]	total protein half-life in vivo [5] [h]	total protein half-life in vivo [6] [h]	total protein half-life in vivo [7] [h]	total protein half-life in vivo [8] [h]	total protein half-life in vivo [9] [h]	total protein half-life in vivo [10] [h]	total protein half-life in vivo [11] [h]	total protein half-life in vivo [12] [h]
MKKAKILSGVLLLCFSSPLISQAATLDVRGGYRSGSHAYETRLKVSEGWQNGWWASMESNTWNTIHDNKKENAALNDVQVEVNYAIKLDDQWTVRPGMLTHFSSNGTRYGPYVKLSWDATKDLNFGIRYRYDWKAYRQQDLSGDMSRDNVHRWDGYVTYHINSDFTFAWQTTLYSKQNDYRYANHKKWATENAFVLQYHMTPDITPYIEYDYLDRQGVYNGRDNLSENSYRIGVSFKL	4.55	3.093 ± 0.0091	6.86 ± 1.1									
MTEPHVAVLSQVQQFLDRQHGLYIDGRPGPAQSEKRLAIFDPATGQEIASTADANEADVDNAVMSAWRAFVSRRWAGRLPAERERILLRFADLVEQHSEELAQLETLEQGKSIAISRAFEVGCTLNWMRYTAGLTTKIAGKTLDLSIPLPQGARYQAWTRKEPVGVVAGIVPWNFPLMIGMWKVMPALAAGCSIVIKPSETTPLTMLRVAELASEAGIPDGVFNVVTGSGAVCGAALTSHPHVAKISFTGSTATGKGIARTAADHLTRVTLELGGKNPAIVLKDADPQWVIEGLMTGSFLNQGQVCAASSRIYIEAPLFDTLVSGFEQAVKSLQVGPGMSPVAQINPLVSRAHCDKVCSFLDDAQAQQAELIRGSNGPAGEGYYVAPTLVVNPDAKLRLTREEVFGPVVNLVRVADGEEALQLANDTEYGLTASVWTQNLSQALEYSDRLQAGTVWVNSHTLIDANLPFGGMKQSGTGRDFGPDWLDGWCETKSVCVRY	4.33	3.12 ± 0.38	5.23 ± 0.96	8.67 ± 0.33	5.34 ± 0.17	10.3 ± 0.53						
MKTMLAAYLPGNSTVDLREVAVPTPGINQVLIKMKSSGICGSDVHYIYHQHRATAAAPDKPLYQGFINGHEPCGQIVAMGQGCRHFKEGDRVLVYHISGCGFCPNCRRGFPISCTGEGKAAYGWQRDGGHAEYLLAEEKDLILLPDALSYEDGAFISCGVGTAYEGILRGEVSGSDNVLVVGLGPVGMMAMMLAKGRGAKRIIGVDMLPERLAMAKQLGVMDHGYLATTEGLPQIIAELTHGGADVALDCSGNAAGRLLALQSTADWGRVVYIGETGKVEFEVSADLMHHQRRIIGSWVTSLFHMEKCAHDLTDWKLWPRNAITHRFSLEQAGDAYALMASGKCGKVVINFPD	4.41 ± 0.15		2.74	5.33 ± 3.6	4.27 ± 0.51	8.54 ± 2.2	2.87	2.466 ± 0.011	2.619 ± 0.012	1.84 ± 1.1	2.17 ± 0.04	3.6 ± 0.11
MTIFDNYEVWFVIGSQHLYGPETLRQVTQHAEHVVNALNTEAKLPCKLVLKPLGTTPDEITAICRDANYDDRCAGLVVWLHTFSPAKMWINGLTMLNKPLLQFHTQFNAALPWDSIDMDFMNLNQTAHGGREFGFIGARMRQQHAVVTGHWQDKQAHERIGSWMRQAVSKQDTRHLKVCRFGDNMREVAVTDGDKVAAQIKFGFSVNTWAVGDLVQVVNSISDGDVNALVDEYESCYTMTPATQIHGKKRQNVLEAARIELGMKRFLEQGGFHAFTTTFEDLHGLKQLPGLAVQRLMQQGYGFAGEGDWKTAALLRIMKVMSTGLQGGTSFMEDYTYHFEKGNDLVLGSHMLEVCPSIAAEEKPILDVQHLGIGGKDDPARLIFNTQTGPAIVASLIDLGDRYRLLVNCIDTVKTPHSLPKLPVANALWKAQPDLPTASEAWILAGGAHHTVFSHALNLNDMRQFAEMHDIEITVIDNDTRLPAFKDALRWNEVYYGFRR	3.94 ± 0.26	2.84 ± 0.36	5.77 ± 0.19	9.63 ± 1.2	5.05 ± 0.14	11.6 ± 1.2	3.03 ± 0.081	3.07	3.405 ± 0.014	3.25 ± 0.17	3.26	
MNNSAFTFQTLHPDTIMDALFEHGIRVDSGLTPLNSYENRVYQFQDEDRRRFVVKFYRPERWTADQILEEHQFALQLVNDEVPVAAPVAFNGQTLLNHQGFYFAVFPSVGGRQFEADNIDQMEAVGRYLGRMHQTGRKQLFIHRPTIGLNEYLIEPRKLFEDATLIPSGLKAAFLKATDELIAAVTAHWREDFTVLRLHGDCHAGNILWRDGPMFVDLDDARNGPAVQDLWMLLNGDKAEQRMQLETIIEAYEEFSEFDTAEIGLIEPLRAMRLVYYLAWLMRRWADPAFPKNFPWLTGEDYWLRQTATFIEQAKVLQEPPLQLTPMY [P0C0K3]	3.88 ± 0.5	2.99 ± 0.046	5.38 ± 0.61	10.3 ± 1.3	6.02 ± 0.38	10.3 ± 0.64	5.41 ± 1.8	4.37 ± 0.62	4.43 ± 0.29	4.22 ± 0.26	4.23 ± 0.21	6.67 ± 0.66
MSGGLVTAAYIVAAILFIFSLAGLSKHETSRQGNNFGIAGMAIALIATIFGPDTGNVGWILLAMVIGGAIGIRLAKKVEMTEMPELVAILHSFVGLAAVLVGFNSYLHHDAGMAPILVNIHLTEVFLGIFIGAVTFTGSVVAFGKLCGKISSKPLMLPNRHKMNLAALVVSFLLLIVFVRTDSVGLQVLALLIMTAIALVFGWHLVASIGGADMPVVVSMLNSYSGWAAAAAGFMLSNDLLIVTGALVGSSGAILSYIMCKAMNRSFISVIAGGFGTDGSSTGDDQEVGEHREITAEETAELLKNSHSVIITPGYGMAVAQAQYPVAEITEKLRARGINVRFGIHPVAGRLPGHMNVLLAEAKVPYDIVLEMDEINDDFADTDTVLVIGANDTVNPAAQDDPKSPIAGMPVLEVWKAQNVIVFKRSMNTGYAGVQNPLFFKENTHMLFGDAKASVDAILKAL [P0AB67]	6.55 ± 0.55	3.36 ± 0.3	6.08 ± 1.6	14.8 ± 0.91	6.5 ± 0.41	11.6 ± 1.1	6.742 ± 0.019	6.72 ± 1.3	5.57 ± 0.22	6.05 ± 0.38	6.02 ± 0.96	11.7 ± 0.14
MNKRDAINHIRQFGGRLDRFRKSVGGSGDGGRNAPKRAKSSPKPVNRKTNVFNEQVRYAFHGALQDLKSKPFATFLTVMVIAISLTLPSVCYMVYKNVNQAATQYYPSPQITVYLQKTLDDDAAAGVVAQLQAEQGVEKVNYLSREDALGEFRNWSGFGGALDMLEENPLPAVAVVIPKLDFQGTESLNTLRDRITQINGIDEVRMDDSWFARLAALTGLVGRVSAMIGVLMVAAVFLVIGNSVRLSIFARRDSINVQKLIGATDGFILRPFLYGGALLGFSGALLSLILSEILVLRLSSAVAEVAQVFGTKFDINGLSFDECLLLLLVCSMIGWVAAWLATVQHLRHFTPE [P0AC30]	6.31 ± 0.59	3.17 ± 0.15	5.86 ± 0.36	12.5 ± 2.4	5.99 ± 0.82	13.5 ± 1.3	6.43 ± 0.28	6.04 ± 0.071	6.55 ± 0.64	6.02 ± 0.32	6.42 ± 0.099	12.3 ± 1.8
MTDHTMKKNPVSIPHTVWYADDIRRGEREAADVLGLTLYELMLRAGEAAFQVCRSAYPDARHWLVLCGHGNNGGDGYVVARLAKAVGIEVTLLAQESDKPLPEEAALAREAWLNAGGEIHASNIVWPESVDLIVDALLGTGLRQAPRESISQLIDHANSHPAPIVAVDIPSGLLAETGATPGAVINADHTITFIALKPGLLTGKARDVTGQLHFDSLGLDSWLAGQETKIQRFSAEQLSHWLKPRRPTSHKGDHGRLVIIGGDHGTAGAIRMTGEAALRAGAGLVRVLTRSENIAPLLTARPELMVHELTMDSLTESLEWADVVVIGPGLGQQEWGKKALQKVENFRKPMLWDADALNLLAINPDKRHNRVITPHPGEAARLLGCSVAEIESDRLHCAKRLVQRYGGVAVLKGAGTVVAAHPDALGIIDAGNAGMASGGMGDVLSGIIGALLGQKLSPYDAACAGCVAHGAAADVLAARFGTRGMLATDLFSTLQRIVNPEVTDKNHDESSNSAP	5.24 ± 0.42	3.2 ± 0.32	6.53 ± 1.6	10.1 ± 3.4	5.62 ± 0.14	11.3 ± 0.24	4.62 ± 0.52	4.91 ± 0.3	5.56 ± 0.66	4.42 ± 0.3	4.25 ± 0.34	8.83 ± 1.5
MKRTMLYLSLLAVSCSVSAAKYPVLTESSPEKAGFNVERLNQMDRWISQQVDVGYPSVNLLIIKDNQIVYRKAWGAAKKYDGSVLMEQPVKATTGTLYDLASNTKMYATNFALQKLMSEGKLHPDDRIAKYIPGFADSPNDTIKGKNTLRISDLLHHSGGFPADPQYPNKAVAGALYSQDKGQTLEMIKRTPLEYQPGSKHIYSDVDYMLLGFIVESVTGQPLDRYVEESIYRPLGLTHTVFNPLLKGFKPQQIAATELNGNTRDGVIHFPNIRTSTLWGQVHDEKAFYSMGGVSGHAGLFSNTGDIAVLMQTMLNGGGYGDVQLFNAETVKMFTTSSKEDATFGLGWRVNGNATMTPTFGTLASPQTYGHTGWTGTVTVIDPVNHMTIVMLSNKPHSPVADPQKNPNMFESGQLPIATYGWVVDQVYAALKQK	6.01 ± 1.4	3.15 ± 0.17	6.3 ± 0.47	10.4 ± 1.3	5.84 ± 0.99				5.56 ± 0.55	5.13 ± 0.61	5.42 ± 0.84	11.2 ± 0.13
MPELPEVETSRRGIEPHLVGATILHAVVRNGRLRWPVSEEIYRLSDQPVLSVQRRAKYLLLELPEGWIIIHLGMSGSLRILPEELPPEKHDHVDLVMSNGKVLRYTDPRRFGAWLWTKELEGHNVLTHLGPEPLSDDFNGEYLHQKCAKKKTAIKPWLMDNKLVVGVGNIYASESLFAAGIHPDRLASSLSLAECELLARVIKAVLLRSIEQGGTTLKDFLQSDGKPGYFAQELQVYGRKGEPCRVCGTPIVATKHAQRATFYCRQCQK	6.1 ± 0.54	2.58 ± 0.11		12.7 ± 2.8	6.46 ± 0.51	14.2 ± 0.28	6.39 ± 0.79	6.03	6.39 ± 1.2	5.63 ± 0.36	6.31 ± 0.42	12.8 ± 1.4
MHEITLCQRALELIEQQAAKHGAKRVTGVWLKIGAFSCVETSSLAFCFDLVCRGSVAEGCKLHLEEQEAECWCETCQQYVTLLTQRVRRCPQCHGDMLQIVADDGLQIRRIEIDQE [P0A700]	4.63			11.3			2.12			1.76	2.36	2.23
MNIVITGGTGLIGRHLIPRLLELGHQITVVTRNPQKASSVLGPRVTLWQGLADQSNLNGVDAVINLAGEPIADKRWTHEQKERLCQSRWNITQKLVDLINASDTPPSVLISGSATGYYGDLGEVVVTEEEPPHNEFTHKLCARWEEIACRAQSDKTRVCLLRTGVVLAPDGGILGKMLPPFRLGLGGPIGSGRQYLAWIHIDDMVNGILWLLDNELRGPFNMVSPYPVRNEQFAHALGHALHRPAILRVPATAIRLLMGESSVLVLGGQRALPKRLEEAGFAFRWYDLEEALADVVR	7.07 ± 0.37	3.25 ± 0.15	5.86 ± 0.16	11.09 ± 0.052	5.931 ± 0.026	12.38 ± 0.057	6.1 ± 0.14	6.36 ± 0.6	5.86 ± 0.6	5.71 ± 0.17	5.76 ± 0.032	
MKLQNSFRDYTAESALFVRRALVAFLGILLLTGVLIANLYNLQIVRFTDYQTRSNENRIKLVPIAPSRGIIYDRNGIPLALNRTIYQIEMMPEKVDNVQQTLDALRSVVDLTDDDIAAFRKERARSHRFTSIPVKTNLTEVQVARFAVNQYRFPGVEVKGYKRRYYPYGSALTHVIGYVSKINDKDVERLNNDGKLANYAATHDIGKLGIERYYEDVLHGQTGYEEVEVNNRGRVIRQLKEVPPQAGHDIYLTLDLKLQQYIETLLAGSRAAVVVTDPRTGGVLALVSTPSYDPNLFVDGISSKDYSALLNDPNTPLVNRATQGVYPPASTVKPYVAVSALSAGVITRNTTLFDPGWWQLPGSEKRYRDWKKWGHGRLNVTRSLEESADTFFYQVAYDMGIDRLSEWMGKFGYGHYTGIDLAEERSGNMPTREWKQKRFKKPWYQGDTIPVGIGQGYWTATPIQMSKALMILINDGIVKVPHLLMSTAEDGKQVPWVQPHEPPVGDIHSGYWELAKDGMYGVANRPNGTAHKYFASAPYKIAAKSGTAQVFGLKANETYNAHKIAERLRDHKLMTAFAPYNNPQVAVAMILENGGAGPAVGTLMRQILDHIMLGDNNTDLPAENPAVAAAEDH [P0AD65]	7.59 ± 0.27	3.03 ± 0.031	6.92 ± 1.1	11.8 ± 0.77	6.24 ± 0.3	13.7 ± 1	6.61 ± 0.79	6.75 ± 0.56	6.37 ± 0.078	5.71 ± 0.077	6.5 ± 0.79	13.4 ± 0.88

Source: the supplement of paper PMC11246515
